The assay concerns the target fluorescein-labelled mouse EAG1 eag domain (FL-eag) (mouse) (UniProt Q60603). The assay is described as follows: fluorescence polarisation.

In publication PMC3910112 one finds Kd data, which are given here for 1 substance.

For “mouse EAG1 (mEAG1) CNBHD (residues 552-724) (from UniProt Q60603 552-724) (domain or fragment)”, the Kd was 13.2 µM.

The Kd is a measure of binding affinity in units of concentration. A higher Kd goes with lower affinity.
